Experimental data reported in the DeepSol protein solubility set.

Assay: soluble on expression in E. coli; label from the status in PepcDB or PDB records

Sequence | soluble on expression in E. coli
MSGSGMTPMLQATPEQARTLGAEEPIRPGQDRLAHAPADHPELPQPKIGILLANLGTPDNYDYWSMRRYLNEFLSDKRVIDYPAWKWQPLLQILILSKRPFSSGANYKLIWNHDKGESPLMTITKDQTAAIAAEIRSLYGNRVMVDFCMRYGNPSTESRVRAMVEAGCEKILFFPLYPHYAGATSATANDEFFRAMMKEKRQPAVRTVPEYYDNPLYIDALAQSVERAYAQLDHRPDVLVASYHGMPKRYLMAGDPYHCQCAKTSRLLRERLGWEKGAIDTTFQSVFGPEEWLKPYTVEHVAELARAGKKRIAVIAPAFSADCIETLEEINGEIREAFEEAGGEEFTYIPCLNDDEAHIRALVSVIEDNLAGWLARG | not soluble
MSLGELLFNRSFENTKPVSESNSWYTCYRGDVKEAKWWHSGYEEPKWYLLADGRKEEKLPLIFNNYWPSAHGKYFLQIDNRKKQIPTLLVQERIYIEKGKGYTVSGLFSSGGYLSEEKYSKESVPVTIAIYKEGDFHTPLSKTELAVNTNQFILYSSSLDATEYEGWCTYTIEVPAGGCVGIDLLSLMADDVIKGWKRESVERIKNELRPRTMRMPGGCFTSLYDWRSGIGPREERPVSYDTWWGCELLNDVGTFELVDLCEAVGAEPFFCVPVMFNNEYSAADWVDFCNNPTNAQRIAYGRTKPLNVKYWELENEPYRRFDAVTYANRCVDFAKAMKAKDPSIKIAVGNYWLFNKKFKEMLEIVGPYVDLITNRGGTPEEMRADIVILDAYNKAHGTDIKLCHTEFRAPVTRNEGNTDGLNQKDTGGEETLFNASIRWGFAMNMVEQYIAYQNMGGSFFTANYTNLSDGWGECLINTPKEGTYLNAPGVAFALLNSLDIAYPQIIEQEKENQDIVIQAAWNKRRDKLTLVVLNFSQNTQPCKIDFSQIKKSFRVRKGMKIAPQSDLSFNTLQHPEEVKVESFVPSTGKMMKLGLPGNSLIVVELQAERSHGIHVNASTGNEGHHHHHH | not soluble
MTFVPLNPIPLKDRTSMIFLQYGQIDVLDGAFVLIDKTGIRTHIPVGSVACIMLEPGTRVSHAAVRLASTVGTLLVWVGEAGVRVYSSGQPGGARADKLLYQAKLALDDDLRLKVVRKMYELRFREPPPARRSVEQLRGIEGSRVRATYALLAKQYGVKWHGRNYDPKDWEKGDVVNRCISAATSCLYGISEAAILAAGYAPAIGFIHSGKPLSFVYDIADIIKFESVVPKAFEIAARHPAEPDKEVRLACRDIFRSSKLTGKLIPLIEEVLAAGEIEPPQPAPDMLPPAIPEPESLGDSGHRGHG | not soluble
MGSDKIHHHHHHMIENVNYARTLLTEEEVGHIVQSGTIVRYKKGQIIFSESDAADRVYFVKEGYVRIFRITQYGRRVTVGCIRSPGQLMGLAETLYGGDRTCFASAIDDVTIVVIRHQQFLDLLEKHPAIAIKVTITLAIRMREAEGIIEEMVCFQVPGRLAQLLIKMAKRAGMETPRGTKISFRLTHEDIAYMIGTSRQNVTSLLNTFKYENSIAIEDKELYILDIEKLNSWVV | not soluble
MHQLWTYDPAAGTVEVGAGTTNEGLVDGPGEEAWFAQPSGLAATADRLWLADSETSALRWVDLDGAVHTAVGTGLFDFGHRDGDAEQALLQHPLGVTALPDGSVAVSDTYNHALRRYDPATGEVTTLATDLREPSDAVLVGDDIVVVESARHRLTRLRLPEEAVRVASVAHRTQRAATEVAPGRLQLDVIFQAPAGQKLDTRYGPSTRLLVSSTPPELLLNGEGADPDLSRTLELNPAIPEGVLHVSAMAASCDDDPANEYPACHVHQQDWGVPVRLTEGGADRLPLVLAGMDALEHHHHHH | not soluble
MSYYHHHHHHDYDIPTTENLYFQGAMGSMNTRNTRSKQRAPCGVSSSVKPRLDLIEQAPNPVYDRHPACITLPERTCRHPLTDLEANEQLGRCEDSVKNRFDRVIPFLQVVAGIPLGLDHVTRVQELAQSSLGHTLPEELLKDNWISGHNLKGIFGYATAKALTAATEQFSRKIMSEKDDSASAIGFFLDCGFHAVDISPCADGRLKGLLPYILRLPLTAFTYRKAYAGSMFDIEDDLAQWEKNELRRYREGVPNTADQPTRYLKIAVYHFSTSDPTHSGCAAHGSNDRAALEAALTQLMKFREAVENAHCCGASIDILLIGVDTDTDAIRVHIPDSKGFLNPYRYVDNTVTYAQTLHLAPDEARVIIHEAILNANRSDGWAKGNGVASEGMRRFIGQLLINNLSQIDYVVNRHGGRYPPNDIGHAERYISVGDGFDEVQIRNLAYYAHLDTVEENAIDVDVGITIFTKLNLSRGLPIPIAIHYRYDPNVPGSRERTVVKARRIYNAIKERFSSLDEQNLLQFRLSVQAQDIGSPIEEVASA | soluble
MDITNLIELETICLDLKAQTKDEALKELVEMLEAAGKLNSQSQFLADIWKREEIGNTGFDDGIAIPHAKSDAVAKPAVAVGISRNGIDYGAEDGELSDVFFMLASPDGDDHHHIEVLAQISTKIIEDGFVEKLKQAQSREEALEMLTDIQTQSNEFLPTSLEFASEPLSPWAQKLGRIKEH | not soluble
VAESKLVIGDRSFASRLIMGTGGATNLAVLEQALIASGTELTTVAIRRVDADGGTGLLDLLNRLGITPLPNTAGSRSAAEAVLTAQLAREALNTNWVKLEVIADERTLWPDAVELVRAAEQLVDDGFVVLPYTTDDPVLARRLEDTGCAAVMPLGSPIGTGLGIANPHNIEMIVAGARVPVVLDAGIGTASDAALAMELGCDAVLLASAVTRAADPPAMAAAMAAAVTAGYLARCAGRIPKRFWAQASSPAR | soluble
MSVKEPEKFLASHIYNIDYQEDLNKCFANLCTNKKNTILLESAEIDTKDKLKSILVLNSALRIACIENKVFIKPLSENGKYALKAIQENIKKDVDYKYDNNQLVLTFEFIKDYQLSESQKLKKPSVFDALRIIKDSFEIYNEFSIFLAGLFAYDVVASFENIGKIKRKNKCPDYVFYLADTILVSDHQEQKTFIQVNSFGHQTITDLEDSVAAIKQNINNDIELKVEKFKNIEPKESINDRDFCIVVDKLKSHIIDGDIFQVVPSRSFFLPCQNSLEVYKELKRTNPSPYMFYMQDEDFILFGASPESALKYQKSTNQVEIYPIAGTRRRAKNSDGSINADLDSRIELELRLDAKENAEHMMLVDLARNDVARISKTGTRYVADLLKVDRYSHVMHLVSRVVGQLADDLDALHAYQASMNMGTLTGAPKIKAMQLISEVEKQTRGVYGGAIGYFNGYGDLDSCIVIRSAYVENGVAEIQAGAGVVLDSIPIAEADETRTKAQAVISAIKNVHGV | not soluble
MGSDKIHHHHHHVNDGSNDFELLGSPWICENPHANWTAPAAHGMFKRFKKKEIIIHSGDQIDYIYYLHKGRIKTVAQSPSGSQKILWYIEAGSIFGETPFFNRKPCDYNFFAVTDCEIYIYPMEVIMQEIIPKFPDLTLSIIKTLSRKVHILSTQVEDCVFNKPLVRVAKLIYLLHQGRILEDKRGSSSIPLTQEDIANTLGMHRVTVNQALKHLKEIQALKEHTHLIIIHDPEKLKEVMEA | not soluble
GPGSMAAAEGGQRSDEQVRAAALSWLRMTPVEKRVYEEEAQSWQTRLETLSTAPPSAHDLGEGSSSAAALPDALPSAEQPLPQQQHSSHLVAQRSSPKATAERLPRSKSSFVLFRAHMKGRRKMCMRELCAVWRNMSAEEKAPYDAAAASKRTEQFLSQTPSAPGSQS | soluble
KREPALNPNEYKKFMLREKQIINHNTRLFRFNLHHPEDVVGLPIGQHMSVKATVDGKEIYRPYTPVSSDDEKGYFDLIIKVYEKGQMSQYIDHLNPGDFLQVRGPKGQFDYKPNMVKEMGMIAGGTGITPMLQVARAIIKNPKEKTIINLIFANVNEDDILLRTELDDMAKKYSNFKVYYVLNNPPAGWTGGVGFVSADMIKQHFSPPSSDIKVMMCGPPMMNKAMQGHLETLGYTPEQWFIF | soluble
MTTSPTENAHAVVLGGSVAGCLAAAVLARRYPRVTIVEKSDFHNETGARQSVPQEHHVHLLLQRGKDIMEAIFPGFLSELEQAGALVADLGHDVKWYQAGRWKNRYRCGIHAHYCSRRLIDTHLRRRVARLPQVTVLSRTQMEGLDFRRDGDRLAVGGVRLRNDDHAWTLDADALVDASGRGTRLPGWLETAGLGAVDKSMVKTDLGYASRIYRRRPEFANQWKVLLVLATPPHQRAMGVISPIEGDRWMVTTGGWFGHYPDRDPNAFLKALAALPMPDIHQVIRDAEPLSDVSVFRMPGSLRRHYDRLPRWPDGLLVVGDALASMNPLYSQGMTLCALEAECLDENLDALLAGGLRCQELQEKLCRALDPAWQMAVTEDLRFPETEGERGWRTRFLHWYGAGLTRLSAYHRGALEAQIGVSNLIVNPSRLYAPPIAARIVLGSLLPGEARTLEHHHHHH | not soluble
